Where a chain is given by its changes, count along the chain named.
T1: human DLL3 (immobilized human DLL3 or h293-hDLL3 cells) (human, UniProt Q9NYJ7 27-492, limits assumed)
T1 construct: the sentence says 'immobilized human DLL3 or h293-hDLL3 cells'
T1 sequence: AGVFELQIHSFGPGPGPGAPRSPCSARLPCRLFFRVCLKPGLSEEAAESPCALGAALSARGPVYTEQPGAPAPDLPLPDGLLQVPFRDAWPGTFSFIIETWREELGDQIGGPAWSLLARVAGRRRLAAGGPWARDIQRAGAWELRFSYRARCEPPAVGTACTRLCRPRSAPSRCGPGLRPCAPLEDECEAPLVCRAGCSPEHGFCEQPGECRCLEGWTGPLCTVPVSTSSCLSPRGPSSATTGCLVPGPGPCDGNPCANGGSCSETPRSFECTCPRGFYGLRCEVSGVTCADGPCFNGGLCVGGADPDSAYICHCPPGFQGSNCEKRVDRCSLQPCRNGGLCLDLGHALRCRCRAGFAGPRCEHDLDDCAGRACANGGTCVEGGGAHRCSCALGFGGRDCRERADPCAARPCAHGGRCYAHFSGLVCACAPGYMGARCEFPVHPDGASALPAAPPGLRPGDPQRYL

B1: SC16.107 (antibody, V domains shown)
VH: EVQLQQSGPELVKPGASVKMSCKASGYTFTNYVMHWVKQKPGQGLEWIGYINPYNDGTKYNEKFKGKATLTSDKSSTTAYMALSSLTSEDSAVYYCAVAYYSNWGFAYWGQGTLVTVSA
VL: DIVMTQSHKFMSTSVGDRVSITCKASQDVNTAVGWYQQKPGQSPKLLIYSASYRYTGVPDRFTGSGSGTDFTFTISSVQAEDLAVYYCQQHYSSPYTFGGGTKVEIK
notes: murine mAb; variable regions only
B2: SC16.139 (antibody, V domains shown)
VH: B1 VH
VL: B1 VL with V104L
notes: as for B1
B3: SC16.109 (antibody, V domains shown)
VL: QIVLTQSPAIMSASPGEKVTMTCSASSSVSYMYWYQQKPGSSPRLLIYDTSNLASGVPVRFSGSGSGTSFSLTISRMEAEDTATYYCQEWSGNPLTFGDGTKLELK
V domain: QIQLVQSGPELKKPGETVKISCKASGYTFTNYGMNWVKQAPGKGLKWMGWINTYTGEPAYADDFKGRFAFSLETSASAAYLQINNLKNEDTATFFCANMRPTRGFAYWGQGTLGTVSA
notes: as for B1
B4: SC16.110 (antibody, V domains shown)
VH: EVQLQQSGPGLVRTGASVKISCKASGYSFTGYYMHWVKQSHGKSLEWIGYISCYNGATTYNQNFKGKATFIVDTSSSTAYMQFNSLTSEDSAVYYCARSDGGHAMDYWGQGTSVTVSS
VL: NIVMTQTPKFLLVSAGDRVTITCKASQSVSNDVAWYQQKPGQSPKLLIYYASNRYTGVPDRFTGSGYGTDFTFTISTVQAEDLAVYFCQQDYSSPPTFGGGTKLEIK
notes: as for B1
B5: SC16.111 (antibody, V domains shown)
VH: EVQLQQSGPELEKPGASVKISCKASGYSFTGYNMNWVKQSNGKSLEWIGNIDPYYGGSSYKQKFEGKATLTVDKSSSTAYMQLKSLTSEDSAVYYCARGGSNFFDYWGQGTTLTVSS
VL: DIQMTQSPASLAASVGETVTITCRASENIYYSLAWYQQKQGKSPQLLIYNANSLEDGVPSRFSGSGSGTQYSMKINSMQPEDTATYFCKQTYDVPLTFGAGTKLELK
notes: as for B1
B6: SC16.113 (antibody, V domains shown)
VH: DVKLVESGGGLVKPGGSLKLSCAASGFTFSSYTMSWVRQTPEKRLEWVATISSGGSYPYYPDSVKGRFTISRDNAKNTLYLQMSSLKSEDTAMYYCTRDVYDGYSYWGQGTTLTVSS
VL: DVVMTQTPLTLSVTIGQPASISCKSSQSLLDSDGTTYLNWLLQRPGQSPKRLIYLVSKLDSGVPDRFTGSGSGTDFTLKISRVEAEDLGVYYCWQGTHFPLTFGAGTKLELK
notes: as for B1
B7: SC16.114 (antibody, V domains shown)
VH: EVQLQQSGAELVKPGASVKLSCTASGFNIKDTYIHWVKQRPEQGLEWIGRIDPANGNTKYDPKFQGKATITPDTSSNTAYLQLSSLTSEDTAVYYCARSWRNYGSSFWYFDVWGAGTTVTVSS
VL: QIVLSQSPAILSASPGEKVTMTCRASSSVSYMHWYQQKPGSSPKPWIYATSNLASGVPARFSGSGSGTSYSLTISRVEAEDAATYYCQQWSSNPYTFGGGTKLEIK
notes: as for B1
B8: SC16.115 (antibody, V domains shown)
VH: B6 VH
VL: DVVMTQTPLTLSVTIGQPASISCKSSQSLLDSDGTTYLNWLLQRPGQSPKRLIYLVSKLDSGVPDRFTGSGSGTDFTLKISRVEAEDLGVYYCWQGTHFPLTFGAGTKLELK
notes: as for B1
B9: SC16.116 (antibody, V domains shown)
VH: QVQLKQSGPGRVQPSQSLSITCTVSGFSLTSNGVHWVRQSPGKGLEWLGVLWSGGSTDYNAAFISRLSISKDNYKSQVFFKMNSLQANDTAIYYCARNNNRYGAMDYWGQGTSVTVSS
VL: DIVMTQSPSSLTVTAGEKVTMSCTSSQSLLTSGNQKNYLTWYQQKPGQPPKLLIYWASTRESGVPDRFTGSGSGTDFTLTISSLQAEDLAVYYCQNDYSLTFGAGTKLELK
notes: as for B1
B10: SC16.117 (antibody, V domains shown)
VH: QVQLKESGPGLVAPSQSLSITCTVSGFSLTNYGVHWVRQPPGKGLEWLGVIWAGGITNYNSALMSRLSISEDNSKSQVFLKMNSLQTDDTAMYYCARNLGPYAMDYWGQGTSVTVSS
VL: DIQMNQSPSSLSASLGDTITITCHVSQNINVWLSWYQQKPGNIPKLLIQKASNLHTGVPSRFSGSGSGTGFTLTISSLQPEDIATYYCQQGQSYPFTFGSGTKLEIK
notes: as for B1
B11: SC16.118 (antibody, V domains shown)
VH: EVQLQQSGPDLVKPGASVKISCKASGYSFTGYYMHWVKQSHGKSLEWIGRVNPNNGGTSYNQKFKGKAILTADKSSSTAYMELRSLTSEDSAVYYCARGSYDYAEGWGQGTLVTVSA
VL: DIVLTQSPASLAVSLGQRATISCKASQSVDYDGDSYLTWYQQKPGQPPKLLIYAASNLESGIPARFSGSGSGTDFTLNIHPVEEEDAATYYCQQSNEDPYTFGGGTKLEIK
notes: as for B1
B12: SC16.134 (antibody, V domains shown)
VH: B11 VH with S44R, S59N, A72V, Y103N
VL: B11 VL with Y31H, D32A, L37M, T38N
notes: as for B1
B13: SC16.121 (antibody, V domains shown)
VH: EVQLVESGGGLVQPKGSLKLSCAASGFTFNTYAMNWVRQAPGKGLEWVARIRIKSNNYATYYADSVKDRFTISRDDSQNMLYLQMNNLKTEDTAVYYCVRQGYSYDWGPWFAYWGQGTLVTVSA
VL: QIVLTQSPAIMSASPGEKVTITCSASSSVSYMHWFQQKPGTSPKLWIYSTSNLASGVPARFSGSGSGTSYSLTISRMEAEDAATYYCQQRSSYPPTFGGGTKLEIK
notes: as for B1
B14: SC16.122 (antibody, V domains shown)
VH: EVQLVESGGGLVKPGGSLKLSCAASGFTFSDYYMFWVRQTPEKRLEWVATISDGGSYTYFPDSVKGRFTISRDNAQNNLYLQMSSLKSEDTAMYYCARAGTLYAMDYWGQGTSVTVSS
VL: DIVMTQSQKFMSTSVGDRVSVTCKASQNVGTNVAWYQQKPGQSPKVLIYSASYRYSGVPDRFTGSGSGTDFTLTISNVQSEDLAEFFCQQYNSYPLTFGGGTKLEIK
notes: as for B1
B15: SC16.123 (antibody, V domains shown)
VH: QVALKESGPGILQPSQTLSLTCSFSGFSLSTSGMGVGWIRQPSGKGLEWLAHIWWDDVKRYNPALKSRLTISKDTSSSQVFLKIASVDTADTATYYCARMEDYGSSSYFDFWGHGTTLTVSS
VL: QIVLTQSPAIMSASLGERVTMTCTASSSVSSSYLHWYQQKPGSSPKLWIYSTSNLASGVPARFSGSGSGTSYSLTISSMETEDAATYYCHQYHRSPFTFGSGTKLEIK
notes: as for B1
B16: SC16.124 (antibody, V domains shown)
VH: EVQLQQSGPELVKPGASVKMSCKASGYTFTSYVMHWVKQKPGQGLEWIGYINPYNDGTKYNEKFKGKATLTSDKSSSTAYMELSSLTSEDSAVYYCARGALYYGNYLGYFDVWGAGTTVTVSS
VL: DIQMTQSPASQSASLGESVTITCLASQTIGTWLAWYQQKPGKSPQLLISAATSLADGVPSRFSGSGSGTKFSFKISSLQAEDFVSYYCQQLYSTPWTFGGGTKLEIK
notes: as for B1
B17: SC16.132 (antibody, V domains shown)
VH: QVQLKESGPGLVAPSQSLSITCTVSGFSLTDYGVSWIRQPPGKGLEWLGVVWGGGSTYYNSALKSRLSITKDNSKSQVFLKMNSLQTDDTAMYYCAKQRGQYGAYWGQGTLVTVSA
VL: B16 VL with S49Y
notes: as for B1
B18: SC16.129 (antibody, V domains shown)
VH: B17 VH with V51I, T70S, K81E, M82L, M92I, Q98H, R99Y, Q101H, G103A
VL: B16 VL with S49Y, W96Y
notes: as for B1
B19: SC16.138 (antibody, V domains shown)
VH: B17 VH with T70S
VL: B16 VL with S49Y, A50S
notes: as for B1
B20: SC16.130 (antibody, V domains shown)
VH: EVQLQQSGPELVKPGASVKMSCKASGYTFTSYVMHWVKQKPGQGLEWIGYINPYNDGTEYNEKFKGKATLTSDKSSSTAYMELSSLTSEDSAVYYCARGVYDGYSYFDYWGQGTTLTVSS
VL: DIQLTQSPASLSASVGETVTITCRASGSIHNYLAWYQQKQGKSPQLLVYNAKTLVDGVPSRFSGSGSGTQYSLKINSLQPEDFGYYYCQHFWTTPWTFGGGTKLEIK
notes: as for B1
B21: SC16.131 (antibody, V domains shown)
VH: B10 VH
VL: B10 VL
notes: as for B1
B22: SC16.133 (antibody, V domains shown)
VH: QVQLKESGPGLVAPSQSLSITCTVSGFSLTNYAVHWVRQSPGKGLEWLGVIWSDGSTDYNAAFISRLSISKDNSKSQVFFKMNSLQADDTAMYYCARKKGGWFPWFAYWGQGTLVTVSA
VL: B4 VL with N1S, Y50C, P96L, G100A, I106L
notes: as for B1
B23: SC16.135 (antibody, V domains shown)
VH: QVQLQQSGAELVRPGTSVKVSCKASGYAFTNYLIEWVKQRPGQGLEWIGVINPGSGGTNSNEKFKAKATLTADKSSSTAYMQLSSLTSADSAVYFCARSDYDYAFYAMDYWGQGTSVTVSS
VL: DIKMTQSPSSMYASLGERVTITCKASQDINRYLSWFQQKPGKSPKTLIYRANRLVDGVPSRFSGSGSGQDYSLTISSLEYEDMGIYYCLQYDEFPFTFGSGTKLEIK
notes: as for B1

Target: T1, human DLL3 (immobilized human DLL3 or …)
Assay: hybridoma screening on immobilized human DLL3 or on h293-hDLL3 cells

Binder	binding result
B1	binds
B2	binds
B3	binds
B4	binds
B5	binds
B6	binds
B7	binds
B8	binds
B9	binds
B10	binds
B11	binds
B12	binds
B13	binds
B14	binds
B15	binds
B16	binds
B17	binds
B18	binds
B19	binds
B20	binds
B21	binds
B22	binds
B23	binds

Source: patent US20180044415A1 (AbbVie / Abbott, published 2018)
